Values of other authors in patent publication US20110015134A1, “Method of treatment for early stage cancer” (priority 2007, published 2011).

What was measured:
[1] = test system: wound healing associated tumor growth; conditions: reported in the literature
[2] = in vivo
[3] = at any level, at any concentration
[4] = in vivo; remark: listed apart in the source

For `COc1ccc2c(c1)c(CC(=O)O)c(C)n2C(=O)c1ccc(Cl)cc1` [Indomethacin], the “prevention of wound healing associated / surgery induced tumor growth” value [1] is listed as “effective in preventing wound healing associated tumor growth”.

For `O=S1(=O)CCN(CN2CCS(=O)(=O)NC2)CN1` [Taurolidine], the “prevention of wound healing associated / surgery induced tumor growth” value [1] is given as “can prevent surgery induced tumor growth”.

For “Avastin: angiogenesis inhibitor that inhibits VEGF”, the dose limiting toxicity [2] is given as “some dose limiting toxicity mainly hypertension”.

In the case of Endostatin, the toxicity [3] is listed as “never been shown to exhibit toxicity at any level at any concentration” and the half-life [4] is listed as “half-life is short”.
